Test results: patent US20240245805A1 (Orna Therapeutics, Inc., priority 2020, published 2024)

B1: Yokose virus (nucleic acid, listed as Yokose virus)
DNA: AGTAAATTTTGCGTGCTAGTCGCTGAGCGTCAGACCGCAAAGTGAGTTTTTAGTGATCTAAAGTGAGGAGTTATTCTTACTGTCATCAAACACTACAAATAAACACGTTGAAATTATTTCCGGAAGAACAACTGTCCGGAATCAAAGACG
modifications: lipid formulation
B2: Antarctic penguin virus A (nucleic acid)
DNA: CTAGGAGACTACGCAGTGGGATAAGATGACTATGATGTCGTACGGGCAGAAGCCAGTACAGTCGAAGTCGAGACCGACGTCGAGGATTTGACTCTGCCTGACCTAGTGCCATC
modifications: chemistry not fully specified; the letters are possibly those of the target site
B3: Equine hepacivirus (nucleic acid, listed as Hepacivirus sp.)
chain: ACCTCCGTGCTATGCACGGTGCGTTGTCAGCGTTTTGCGCTTGCATGCGCTACACGCGTCGTCCAACGCGGAGGGATTCTTCCACATTACCATGTGTCACTCCCCCTATGGAGGGTTCCACCCCGCCCACACGGAAATAGGTTAACCATACCTATAGTACGGGTGAGCGGGTCCTCCTAGGGCCCCCCCGGCAGGTCGAGGGAGCTGAAATTCGTGAATCCGTGAGTACACGGAAATCGCGGCTTGAACGTCATACGTGACCTTCGGAGCCGAAATTTGGGCGTGCCCCACGAAGGAAGGCGGGGGCGGTGTTGGGCCGCCGCCCCCTTTATCCCACGGTCTGATAGGATGCTTGCGAGGGCACCTGCCGGTCTCGTAGACCATAGGAC
modifications: lipid formulation
B4: Zika Virus (nucleic acid, listed as Zika virus)
DNA: AGTTGTTGATCTGTGTGAGTCAGACTGCGACAGTTCGAGTCTGAAGCGAGAGCTAACAACAGTATCAACAGGTTTAATTTGGATTTGGAAACGAGAGTTTCTGGTC
modifications: chemistry not fully specified; the letters are possibly those of the target site
B5: GB virus C/Hepatitis G virus (nucleic acid)
chain: CCCCCGGCACTGGGTGCAAGCCCCAGAAACCGACGCCTATCTAAGTAGACGCAATGACTCGGCGCCGACTCGGCGACCGGCCAAAAGGTGGTGGATGGGTGATGACAGGGTTGGTAGGTCGTAAATCCCGGTCACCTTGGTAGCCACTATAGGTGGGTCTTAAGAGAAGGTTAAGATTCCTCTTGTGCCTGCGGCGAGACCGCGCACGGTCCACAGGTGTTGGCCCTACCGGTGGGAATAAGGGCCCGACGTCAGGCTCGTCGTTAAACCGAGCCCGTTACCCACCTGGGCAAACGACGCCCACGTACGGTCCACGTCGCCCTTCAATGTCTCTCTTGACCAATAGGCGTAGCCGGCGAGTTGACAAGGACCAGTGGGGGCCGGGGGCTTGGAGAGGGACTCCAAGTCCCGCCCTTCCCGGTGGGCCGGGAAATGC
modifications: lipid formulation; source: /note="Description of Unknown: GB virus C/Hepatitis G virus sequence"
B6: Human pegivirus 2: "an IRES is an IRES sequence of ... Human Pegivirus 2" (nucleic acid, listed as Pegivirus sp.)
DNA: AACTGTTGTTGTAGCAATGCGCATATTGCTACTTCGGTACGCCTAATTGGTAGGCGCCCGGCCGACCGGCCCCGCAAGGGCCTAGTAGGACGTGTGACAATGCCATGAGGGATCATGACACTGGGGTGAGCGGAGGCAGCACCGAAGTCGGGTGAACTCGACTCCCAGTGCGACCACCTGGCTTGGTCGTTCATGGAGGGCATGCCCACGGGAACGCTGATCGTGCAAAGGGATGGGTCCCTGCACTGGTGCCATGCGCGGCACCACTCCGTACAGCCTGATAGGGTGGCGGCGGGCCCCCCCAGTGTGACGTCCGTGGAGCGCAAC
B7: Pegivirus K (nucleic acid)
DNA: AGAATGGTGTGATCCGTCGCCGCTCCAGCGGAAAGCGGGCGGGATCTAGTGGTTAGGGTTGTTCGCGTAAATCCCACACTAGTGGTACGCTCGTATAACGTGGGAGCAGCCGGTGGGGTCGACCCCCCACCTGGCGGCTGCTGAGCACCGGACGAAGCGCGGGGGGTGAACGCTAACCCGCGGCCCGGGCTGCCAACGTTAGGCACGTCTTGGCTGGAAGACGTTAAACACAGGGCCCCCCCTCAACCCTGATCCGAGGCCAGAGACCAAGGTACGCCGCCCTTTTAAAGGCGTTACTCGTCCAATAGGATCTCTCCGGCGGGTTGTCAAACCTTGCTGGCCCTGGTGATGGTTACGGGAGGGGGTGGGGCGGGGAGTAGAAGCCCCGCCCGGCATGGGGGTACCAAGCTCGGCACGCCCAGCACGCGTGGCGTAGGGGAAAAATCCTTCGGGTGACCCCTGGTACCATAAAGTAATTAACATGAGCATGCCGCTAGGGTGTGCTTTTTCTTCCTTCCTTGGGAAGGCGGTGGCACC
modifications: lipid formulation; Pegivirus K
B8: Hepacivirus B (nucleic acid)
DNA: ACCACAAACACTCCAGTTTGTTACACTCCGCTAGGAATGCTCCTGGAGCACCCCCCCTAGCAGGGCGTGGGGGATTTCCCCTGCCCGTCTGCAGAAGGGTGGAGCCAACCACCTTAGTATGTAGGCGGCGGGACTCATGACGCTCGCGTGATGACAAGCGCCAAGCTTGACTTGGATGGCCCTGATGGGCGTTCATGGGTTCGGTGGTGGTGGCGCTTTAGGCAGCCTCCACGCCCACCACCTCCCAGATAGAGCGGCGGCACTGTAGGGAAGACCGGGGACCGGTCACTACCAAGGACGCAGACCTCTTTTTGAGTATCACGCCTCCGGAAGTAGTTGGGCAAGCCCACCTATATGTGTTGGGATGGTTGGGGTTAGCCATCCATACCGTACTGCCTGATAGGGTCCTTGCGAGGGGATCTGGGAGTCTCGTAGACCGTAGCAC
modifications: Hepacivirus B
B9: Theiler's disease-associated virus (nucleic acid)
DNA: TGATACCGTGTCCCGGTACGACCTCGCGCGTCCCCAAGCTCGCCCTGAGGGGGGAGCGTAAGGGCGCGTAGTGGGGTAGCCCCCCAAACCGAGCCACCCTAGTGAGTGACTTTAGAATGGTTAGGGAGACTACCGCCTTCGCTGTTTGGGGACCTAATGATCCGCGTGCCAGGGTTCTTCGGGTAAATCCCGGCGCGGTGTTTTGGGTTCAGGGCAGTAGGGGCAGACGGGCCAGCAGTCGCTGGTTCCTGGTACCACCACCCTATCCGGACGACCTCCCTCACGAAAGGTCGCCACGGTCTGTGGCTCGACGACGCCTATAATTCAGTCCGAGGGGCGCAGCCCTCGTTAAACTTAGGCAAGGTTCCTCGCCATTGATTTGGCCAGGGGTTTAAGTGAACGCCGCCCTTTTAATGTTTAATAGGGTTCTTTCCCGGCGGGTTGACAAACACTTCCCTGGGCTCTTCGTTGGCCTCGGTTCCTTGATGCTTCGGCACCCATGAGCGCACAGGGGGGGGACCCTGCGACAGTCCGCCAAGAGGAAAATCCTTCGGGTGACCTCGTGCGCAACCCAATCCCTTCTTCTTCCACATGGCGTGTCTGTGGTGCATGCTGTG
modifications: lipid formulation; source: /note="Description of Unknown: Theiler's disease-associated virus sequence"
B10: Rodent pegivirus (nucleic acid, listed as Pegivirus sp.)
DNA: GGACTTCGGTCCCCCTGTTACTCTGCGAGCCACCGCAGAGCCAGGGTTGGTACGCCCGAGGTGTTAGACCCCGGCCGAAAGCTCCTAACCATGGGGTTAGTAGGACGTGGTAAATGCCACTGAGGGGTTGGAGAGCTGGTAGAGCGAGTAAGTCGGCGTAAGGCCCGAGTACGGGCCTCCCAGCCCGGGTCAGCCTAAACCTGGCTGTGATACCCGGTGCATGGAGGGCGTGTCCCAACGCTCGATCGCTGTAGGGTGGGTCCCTGCAGTTGGGTGTGGCTACCCTGCTCGTACTGCTTGATAGAGTCCCGGCGGACGGACCAGCTCTCGTCAGTCCGTGGAGTTGCAC
modifications: lipid formulation
B11: Icavirus (nucleic acid)
DNA: CGAAGTTTAAGCTAAGCACCCTCGGGCGTTCCCGGATTATGTGATCACATCAATTTGATGGCTGGTCACCACGCAACGCCTGGAGAGATACTCTTACTTTTCTCTTAAGATCCCCGGTCATTTGACGCTTGTAGGATGATAGGGTTATTTTCCACTATAAATACTTTCATACTCTTGGATGTTCTATATCCAAGACGGGAGGACCTACCCCGTACCCCTTAGAGGTGAGATGCCAAGAACAGGCCCTTTCTGTTCTCTCGACAATGGCATCATAGGCAACAAGCATCACACCAAGATTGCTAAGTTTTGTTAAGAGTTCTTCAAGCTATAGGGTGGCTGTAGCGACCTTCTGATGCCTGCGGATTTCCCCACGGAGCGATCCGTGCCACAGGGGCCAAAAGCCACGGCTAACGCCCATCAGGAGCGGCACTTACCCCGTGCCCCACCCTTGAAACTTGAATGTTCACACTGGCTTCTCTCGGCTTTCTGAACTGTCTGCTTGTTGGGGCCCCGAAGGATGCCCTGGAGGTACCCCATTTTATGGGATCTGACCAGGGGACACCTCAGCTCTCTAAGTTGCTGGTGTTTAAAAAACGTCTAAGGGCCCCCACCCCTTAGGTGGAGGGATCCACCTTTCCTTTATTTTTTAAAACTCTTTTATGGTCACAATTGTTT
modifications: source: /note="Description of Unknown: Icavirus sequence"
B12: Sakobuvirus A FFUP1 (1x mut) (nucleic acid)
DNA: TCACGCGCTTTTCCGGTGGTCACCCACCGTTAGGGAGCGCCAGCGTTCGCGCTTCCGCTACCAGGTGACACACTCCTTTCCCCTCCCCCATTCCCGTTCCCATCCTCTGGACTGGTTTCTCCTCACGATTGACCAGCAGCTGGGAGCTGTTACCAGACGTTGGACAGTAAGTCCCGGATGCACTATAGGGCTGGTGGCTAGTGCTTGGTAAGCACTCAACGCCATACCTAATGTGTACCTCGGCTTGCCCTCCTGGTCGTGGTGACCGGCTGTTTCTCTTCCCTTGGCTCCAGACGGGCTGGTGTCCTACCACCACCGTTGCATGCAGACCTCCCCCTGCGCACTCGAACGCCCTGTCCCAGCAGGGTTAGTATGTGCTGTGCAGATCTGCATGTGACACCCCATCCACTGGTAGAGCAGGAAGTTGCCCTAGCTAACGCGGCAAGTATTACTTTCCGCTACACGTCCTTGAGATTCCTCGGACCTCTGGAACTAGGGTGACTGTGGGCTTGGGAAAACCCACCTTGGTCCTGTACTGCCTGATAGGGTCGCGGCTGGCCGACCAGTGGATGTAGCCAGTTGTTTTGGGAT
modifications: lipid formulation

These molecules were tested on HEK293 cells. Details: circular RNA encoding Gluc with the listed IRES (UTR truncated to 675 nt) transfected into HEK293 cells; supernatant after 24 hours.
Assay type: cell-based, human
In the case of B1, the “Expression (luminescence from secreted Gluc protein)” value (“Expression” for short) is reported as 8.55E+04. With B2 the “Expression” value was 8.42E+04. In the case of B3, the “Expression” value is reported as 8.40E+04. B4 was tested, and the “Expression” value was 8.61E+04. For B5, the “Expression” value was 1.36E+05. For B6, the “Expression” value was 3.14E+05. B7 was tested, and the “Expression” value was 8.07E+04. With B8 the “Expression” value was 8.84E+04. For B9, the “Expression” value was 7.84E+04. With B10 the “Expression” value was 1.79E+05. For B11, the “Expression” value was 4.41E+06. With B12 the “Expression” value was 8.82E+06.
